From publication PMC8049743, “Discovery and characterization of a novel family of prokaryotic nanocompartments involved in sulfur metabolism” (eLife, 2021)

Tests used:
[1] = biological target: T1, ΔNTD-CyD (unencapsulated) (Synechococcus elongatus, UniProt Q8KUU5); test: coupled alanine dehydrogenase assay, NADH fluorescence; type: biochemical; conditions: 25 mM Tris-HCl pH 8, 150 mM NaCl, 5 mM NAD+, 25 °C, 200 nM enzyme
T1 construct: N-terminal His-SUMO tag cut off; E. coli; 45 kDa
T1 sequence (Q8KUU5 226-626 limits assumed): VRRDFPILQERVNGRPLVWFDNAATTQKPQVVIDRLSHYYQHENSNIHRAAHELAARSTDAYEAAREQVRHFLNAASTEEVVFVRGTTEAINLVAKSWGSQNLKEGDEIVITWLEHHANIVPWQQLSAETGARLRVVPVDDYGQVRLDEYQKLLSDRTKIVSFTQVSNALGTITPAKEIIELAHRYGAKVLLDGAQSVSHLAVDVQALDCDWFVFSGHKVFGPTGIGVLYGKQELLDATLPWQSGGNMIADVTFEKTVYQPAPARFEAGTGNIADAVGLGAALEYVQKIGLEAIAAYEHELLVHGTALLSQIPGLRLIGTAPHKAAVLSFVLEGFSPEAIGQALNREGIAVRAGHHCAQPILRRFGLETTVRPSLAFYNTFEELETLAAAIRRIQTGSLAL

[2] = biological target: T2, CyD (cysteine desulfurase, unencapsulated) (Synechococcus elongatus, UniProt Q8KUU5); test: as above; type: biochemical; conditions: 25 mM Tris-HCl pH 8, 150 mM NaCl, 5 mM NAD+, 25 °C, 200 nM enzyme
T2 construct: full length incl; 225-residue N-terminal domain; N-terminal His-SUMO tag cut off; E. coli BL21(DE3) LOBSTR; 68 kDa; PLP enzyme
T2 sequence (Q8KUU5 1-626): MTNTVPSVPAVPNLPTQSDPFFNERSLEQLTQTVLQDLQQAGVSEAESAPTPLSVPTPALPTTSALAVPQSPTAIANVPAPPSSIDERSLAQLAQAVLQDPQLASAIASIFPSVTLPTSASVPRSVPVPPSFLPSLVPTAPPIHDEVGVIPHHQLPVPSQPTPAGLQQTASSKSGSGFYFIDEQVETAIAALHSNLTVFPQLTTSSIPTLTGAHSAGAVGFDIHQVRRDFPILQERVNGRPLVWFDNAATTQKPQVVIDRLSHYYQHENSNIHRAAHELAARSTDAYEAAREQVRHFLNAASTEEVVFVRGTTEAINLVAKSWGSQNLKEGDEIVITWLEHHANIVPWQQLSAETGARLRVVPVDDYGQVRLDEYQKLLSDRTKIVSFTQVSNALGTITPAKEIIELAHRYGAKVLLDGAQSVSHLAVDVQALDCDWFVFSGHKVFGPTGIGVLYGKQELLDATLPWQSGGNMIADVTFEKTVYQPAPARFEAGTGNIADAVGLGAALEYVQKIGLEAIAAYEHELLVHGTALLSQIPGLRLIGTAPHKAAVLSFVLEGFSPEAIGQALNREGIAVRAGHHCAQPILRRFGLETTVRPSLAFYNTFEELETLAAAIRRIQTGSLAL

[3] = biological target: T3, encapsulated CyD (CyD-loaded SrpI encapsulin) (Synechococcus elongatus, UniProt Q8KUU5); test: as above; type: biochemical; conditions: 25 mM Tris-HCl pH 8, 150 mM NaCl, 5 mM NAD+, 25 °C, 200 nM enzyme; CyD encapsulated in SrpI shell
T3 construct: E. coli; 1-2 CyD copies seen in difference map; with Type 2A encapsulin shell protein SrpI
T3 sequence (Q8KUU5 1-626): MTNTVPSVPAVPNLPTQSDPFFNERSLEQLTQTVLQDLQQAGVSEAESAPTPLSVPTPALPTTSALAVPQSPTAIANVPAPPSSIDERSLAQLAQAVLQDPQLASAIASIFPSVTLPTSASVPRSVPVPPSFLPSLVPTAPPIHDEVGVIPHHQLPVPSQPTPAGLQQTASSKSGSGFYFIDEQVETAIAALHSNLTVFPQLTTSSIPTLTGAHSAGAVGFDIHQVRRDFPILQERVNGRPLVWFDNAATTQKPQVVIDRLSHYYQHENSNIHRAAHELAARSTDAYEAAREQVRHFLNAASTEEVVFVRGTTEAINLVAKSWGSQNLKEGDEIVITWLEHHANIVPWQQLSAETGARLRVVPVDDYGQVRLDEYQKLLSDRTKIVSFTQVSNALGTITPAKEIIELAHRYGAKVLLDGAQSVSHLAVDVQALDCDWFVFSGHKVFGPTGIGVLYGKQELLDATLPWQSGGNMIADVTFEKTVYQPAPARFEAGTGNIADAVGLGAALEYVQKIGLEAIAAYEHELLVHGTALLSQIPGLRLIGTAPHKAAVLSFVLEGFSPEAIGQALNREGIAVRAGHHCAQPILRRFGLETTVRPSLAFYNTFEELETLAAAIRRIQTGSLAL
T3 sequence (Q55032 1-306 partner): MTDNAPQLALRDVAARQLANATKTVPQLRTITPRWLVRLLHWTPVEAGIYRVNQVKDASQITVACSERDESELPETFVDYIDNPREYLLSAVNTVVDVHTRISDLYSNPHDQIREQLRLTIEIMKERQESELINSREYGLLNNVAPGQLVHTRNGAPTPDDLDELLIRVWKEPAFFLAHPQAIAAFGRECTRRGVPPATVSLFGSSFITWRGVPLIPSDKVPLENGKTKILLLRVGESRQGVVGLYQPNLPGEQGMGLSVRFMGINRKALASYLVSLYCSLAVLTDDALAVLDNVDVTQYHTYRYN

[4] = biological target: SrpI encapsulin shell protein with C-terminal 6X-His tag, from inclusion bodies, refolded (Synechococcus elongatus PCC 7942) (UniProt Q55032); test: negative stain TEM; apo-SrpI and holo-SrpI (CyD loaded by refolding) at 300 nM in 50 mM CAPS pH 10, 250 mM arginine, 150 mM NaCl; uranyl formate; 3D reconstruction without symmetry, ~18 Å; difference map
[5] = biological target: the molecule itself; test: cryo-EM structure; purified holo-SrpI, 2 mg/mL in 50 mM CAPS pH 10, 250 mM arginine, 150 mM NaCl, 0.05% NP-40; 2.2 Å; symmetry expansion and focused classification for cargo density
[6] = biological target: the molecule itself; test: non-denaturing SDS-PAGE; purified encapsulin, samples not heat-denatured compared with samples heated at 95°C for 15 min
[7] = biological target: T4, SrpI encapsulin shell protein with C-terminal 6X-His tag, from inclusion bodies, refolded (Synechococcus elongatus (strain ATCC …, UniProt Q55032)); test: in vitro cargo loading (co-refolding), SEC co-elution and SDS-PAGE/sfGFP fluorescence; shell unfolded in GuHCl and refolded by dilution in the presence of cargo (encapsulation; CAPS pH 10, 250 mM arginine, glycerol, DTT); NTD fused to sfGFP
T4 chain: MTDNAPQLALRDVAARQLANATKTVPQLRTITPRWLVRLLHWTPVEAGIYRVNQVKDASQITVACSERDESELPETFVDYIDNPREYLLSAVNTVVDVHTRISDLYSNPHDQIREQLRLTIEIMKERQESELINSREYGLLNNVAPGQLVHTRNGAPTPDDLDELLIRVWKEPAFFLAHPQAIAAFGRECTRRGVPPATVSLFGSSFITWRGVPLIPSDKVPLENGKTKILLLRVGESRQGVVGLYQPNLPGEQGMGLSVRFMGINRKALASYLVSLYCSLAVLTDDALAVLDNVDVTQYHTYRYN

In the case of `N[C@@H](CS)C(=O)O` [L-cysteine], the “coupled alanine dehydrogenase assay, NADH fluorescence” value (“coupled alanine dehydrogenase assay” for short) [1] is reported as “the N-terminal domain had no effect on catalytic activity”, the “coupled alanine dehydrogenase assay” value [2] is reported as “Unencapsulated CyD was active towards a cysteine substrate” and the “coupled alanine dehydrogenase assay” value [3] is reported as “the encapsulated CyD was roughly sevenfold more active than unencapsulated CyD”.

Work on “Full-length cysteine desulfurase CyD (Synpcc7942_B2661), purified (enzyme)” yielded a copies of CyD in the difference density of the loaded compartment [4] of 1 to 2 copies.

B1: SrpI encapsulin shell protein with C-terminal 6X-His tag, from inclusion bodies, refolded (natural protein, Synechococcus elongatus PCC 7942)
chain: MTDNAPQLALRDVAARQLANATKTVPQLRTITPRWLVRLLHWTPVEAGIYRVNQVKDASQITVACSERDESELPETFVDYIDNPREYLLSAVNTVVDVHTRISDLYSNPHDQIREQLRLTIEIMKERQESELINSREYGLLNNVAPGQLVHTRNGAPTPDDLDELLIRVWKEPAFFLAHPQAIAAFGRECTRRGVPPATVSLFGSSFITWRGVPLIPSDKVPLENGKTKILLLRVGESRQGVVGLYQPNLPGEQGMGLSVRFMGINRKALASYLVSLYCSLAVLTDDALAVLDNVDVTQYHTYRYN
notes: monomer 35 kDa; T = 1 icosahedral capsid of 60 subunits by cryo-EM; also called apo-SrpI; holo-SrpI (when loaded with CyD); copies: 60
With B1 the “stoichiometry N” value [5] was 60 subunits.

B2: Thermotoga maritima Family 1 encapsulin shell protein (natural protein)
chain: MEFLKRSFAPLTEKQWQEIDNRAREIFKTQLYGRKFVDVEGPYGWEYAAHPLGEVEVLSDENEVVKWGLRKSLPLIELRATFTLDLWELDNLERGKPNVDLSSLEETVRKVAEFEDEVIFRGCEKSGVKGLLSFEERKIECGSTPKDLLEAIVRALSIFSKDGIEGPYTLVINTDRWINFLKEEAGHYPLEKRVEECLRGGKIITTPRIEDALVVSERGGDFKLILGQDLSIGYEDREKDAVRLFITETFTFQVVNPEALILLKF
notes: Family 1 encapsulin shell protein, Thermotoga maritima; also called Tm Enc; T. maritima encapsulin; source: purified
B2: binds [6].

B3: CyD N-terminal domain (residues 1–225) fused to sfGFP (protein)
chain: MTNTVPSVPAVPNLPTQSDPFFNERSLEQLTQTVLQDLQQAGVSEAESAPTPLSVPTPALPTTSALAVPQSPTAIANVPAPPSSIDERSLAQLAQAVLQDPQLASAIASIFPSVTLPTSASVPRSVPVPPSFLPSLVPTAPPIHDEVGVIPHHQLPVPSQPTPAGLQQTASSKSGSGFYFIDEQVETAIAALHSNLTVFPQLTTSSIPTLTGAHSAGAVGFDIHQ
B3: binds [7].
